The data set in a line: soluble on expression in E. coli; label from the status in PepcDB or PDB records.
As for “SGERDQSSDTDQERKGGKHPYSSHYSSDFGSSPQSSGPSSPVNTPPCASNREKNPKRHLSDHHVRHQTVRKVSPKAIPNKKGVRVGFRSQSLNREPLRKDPDIVTKRVLSARLLKITELQNEVSELQVKLAQLLKENKALKSLQYRQEKALSKFEDAENEISQLIHRHNGEITALKERLRKSQEKERMAEKRVKDTEGELFRTKFSLQKLKKISEARHLPERDDLAKKLVSAELKLDNTEKD”, the “soluble on expression in E. coli” value is on record as “not soluble”. “SGLYRIRVSTGASLYAGSNNQVQLWLVGQHGEAALGKRLWPARGKETELKVEVPEYLGPLLFVKLRKRHLLKDDAWFCNWISVQGPGAGDEVRFPCYRWVEGNGVLSLPEGTGRTVGEDPQGLFQKHREEELEERRKLYRWGNWKDGLILNMAGAKLYDLPVDERFLEDKRVDFEVSLAKGLADLAIKDSLNVLTCWKDLDDFNRIFWCGQSKLAERVRDSWKEDALFGYQFLNGANPVVLRRSAHLPARLVFPPGMEELQAQLEKELEGGTLFEADFSLLDGIKANVILCSQQHLAAPLVMLKLQPDGKLLPMVIQLQLPRTGSPPPPLFLPTDPPMAWLLAKCWVRSSDFQLHELQSHLLRGHLMAEVIVVATMRCLPSIHPIFKLIIPHLRYTLEINVRARTGLVSDMGIFDQIMSTGGGGHVQLLKQAGAFLTYSSFCPPDDLADRGLLGVKSSFYAQDALRLWEIIYRYVEGIVSLHYKTDVAVKDDPELQTWCREITEIGLQGAQDRGFPVSLQARDQVCHFVTMCIFTCTGQHASVHLGQLDWYSWVPNAPCTMRLPPPTTKDATLETVMATLPNFHQASLQMSITWQLGRRQPVMVAVGQHEEEYFSGPEPKAVLKKFREELAALDKEIEIRNAKLDMPYEYLRPSVVENSVAI”: the “soluble on expression in E. coli” value is listed as “soluble”. “SGNLLKVLTCTDLEQGPNFFLDFENAQPTESEKEIYNQVNVVLKDAEGILEDLQSYRGAGHEIREAIQHPADEKLQEKAWGAVVPLVGKLKKFYEFSQRLEAALRGLLGALTSTPYSPTQHLEREQALAKQFAEILHFTLRFDELKMTNPAIQNDFSYYRRTLSRMRINNVPAEGENEVNNELANRMSLFYAEATPMLKTLSDATTKFVSENKNLPIENTTDCLSTMASVCRVMLETPEYRSRFTNEETVSFCLRVMVGVIILYDHVHPVGAFAKTSKIDMKGCIKVLKDQPPNSVEGLLNALRYTTKHLNDETTSKQIKSMLQ”: the “soluble on expression in E. coli” value was “soluble”. As to “SGWRSSVSRSLRPETSCDRPSSHLRNMDVNMAAELSPTNSSSSGELSVSPEPPRETQAFLGKVTVIDYFTFQHKHLKVTNIDDMTETLYVKLPENMTRCDHLPITCEYLLGRGSYGAVYAHADNATVKLYDSVTELYHELMVCDMIQIGKATAEDGQDKALVDYLSACTSCHALFMPQFRCSLQDYGHWHDGSIEPLVRGFQGLKDAVYFLNRHCGLFHSDISPSNILVDFTDTMWGMGRLVLTDYGTASLHDRNKMLDVRLKSSKGRQLYRLYCQREPFSIAKDTYKPLCLLSKCYILRGAGHIPDPSACGPVGAQTALRLDLQSLGYSLLYGIMHLADSTHKIPYPNPDMGFDRSDPLYFLQFAAPKVVLLEVLSQMWNLNLDMGLTSCGESPCVDVTAEHMSQFLQWCRSLKKRFKESYFFNCRPRFEHPHLPGLVAELLADDFFGPDGRRG”, the “soluble on expression in E. coli” value was “soluble”. “SHEVVRDVPAMVVDRSNSTLSREYLRRVDATPEVSIVGHCTDMEEAKEQIRRRNAYGIIYVPEDFSEHLNTGRKAHISLYCDMSGLLYYKSLLIANTLVSLEMNKEIKIARSVGATERQGEIISYPIDYEDVALYNPTV”: the “soluble on expression in E. coli” value is reported as “not soluble”. “SHRRFRRHWLVSPSIWWHNRRILDFMPSENRLNGIDVCLNIGALERGSDCKRREERDMAGQAEQMAAELDRHGAAVFFREYPNADHGNVPFYSLTDCVEYLRKAWQR”: the “soluble on expression in E. coli” value was “not soluble”. “SIGLTVEDLLSLRQVVSGNPEALAPLLENISARYPQLREHIMANPEVFVSMLLEA”: the “soluble on expression in E. coli” value was “soluble”. On to “SKKFSWNTSFNFTRNVNKVEKLENPYVYGSRDMVRNEEGYALYSFWMYNQLYVDKQTGQAVFEDVNGDGQITVADRKIMGNANPKFFGGLTNTFKYAGFDLNVFFVYQYGNKVVSFDRILNEGGGTKDNNRGIFEYNMNRWQKPGDDTDVPRVTSVGNNYGIEQNSRFLEDGSFIRLKTLTLGYTVPVDFTKKYSVQSVRFFVTGTNLLLFTKYKGPDPEAVHTSEQNARGIDVGTPPQPVSVQGGLTITL”, for which the “soluble on expression in E. coli” value was “not soluble”. For “SLAKYLELSMGFEEVAYRGLETNSRRLASHVVRNGNILFEIINTLESVAEHYPTVPMSKEEALSIKLDYSADEAHILKSLKEKIIKLTAEIVDENLDRYKYAMDIKAAKENLERSIINSTNFTAAISTIRKSINECVETSKKAIQDNFESFLIQEFVKIHGEGVMDISFNVLDVDSAFQKAIESGAYIIKLPQTMSDVHGSVKLATIAVPYTDIHHTLIQNKDYSGPFLPNYTKSIIEKPETYMHQLESLPPIRLDCIDHCVENYSWNQMMEHARFYANIFGFHKYWSVDEKDVFTGETALKSIVMASSNGKVKMPINEPAKGRKKSQIEEFYDFNGGPGVQHIALKTNDIIATVTSLRKRGIEFNPASQKYYDTLKQRLINDDIILKEDFNSIQNLNILVDYDPETRNNASKTCNYILQIFTKPLHDRPTLFIEIIQRRHHNGFGKGTFKGLFETIEAQQKLRGTLVSSDEG”, the “soluble on expression in E. coli” value is given as “not soluble”. Consider “SLALPADPIQRCLDIRRLVDITSRQKMAAKEPGVLRFKFHKISASELPLDNPVGNMDEVIQALNNQIENCNNSYGEFQTVTIAGHQFKRQEWCLNTNKKMLTLAKAAHGDFKKFLSSIKTEFDWYKSDGWPENHAGFKKGEFQFTAYYAPAAVEARSERGGAFLYPLYSNPGVVSVALESKKYNLKTPLCGVDPLSKVMRGFCLKNADGTYSVAPDREEIEHGALNPKYIIGYLKDPNDSAFLMLQGSGSLLLDGKLFHINYDGANGRPRTMLGRIVQCAQDPTCGGNLDTMERCAKDPKCHDEAKLRCNVSKKIRQSAASEKLIRQYLNNLTPDKADNLRNRDQSYVFFAKEDGGPYGSENISLTPHV”, for which the “soluble on expression in E. coli” value is recorded as “not soluble”. With “SLAPQPLKKGEKAIDVASVVRQKMPASVKDRDAWAKDLATTFESQGLAPTLENVCSVLAVAQQESNYQADPAVPGLSKIAWQEIDRRAERMHIPAFLVHTALKIKSPNGKSYSERLDSVRTEKQLSAIFDDLISMVPMGQTLFGSLNPVRTGGPMQVSIAFAEQHTKGYPWKMDGTVRQEVFSRRGGLWFGTYHLLNYPASYSAPIYRFADFNAGWYASRNAAFQNAVSKASGVKLALDGDLIRYDSKEPGKTELATRKLAGKLGMSDSEIRRQLEKGDSFSFEETALYKKVYQLAEAKTGKSLPREMLPGIQLESPKITRNLTTAWFAKRVDERRARCMKQ”, the “soluble on expression in E. coli” value was “soluble”. For “SLCHVTRPDAVVMEIEVDAKANGEDCLNKVCRKLGIIEVDYFGLQFSGSKGENLWLNLRNRISQQMDNLTPCRLRLRVKFFVEPHLILQEQTRHLFFMHVKEDLHRGHLRMCSEQAQELSALLAQAEFGDYNQNTAKYWYTELCGSEPNQTTINSIIAKHKALEGLSQASVEYQALQLVSSLEHYGVEWHWARDAEAQRLAIGVGPEGIAICRDDFSLVNRISYPIIQIATQSGKSVYLTVTKESSDSVVLLFKLISN”, the “soluble on expression in E. coli” value was “soluble”. As to “SLEEKVRPCIDLIDSLRALGVEQDLALPAIAVIGDQSSGKSSVLEALSGVALPRGSGIVTRCPLVLKLKKLVNEDKWRGKVSYQDYEIEISDASEVEKEINKAQNAIAGEGMGISHELITLEISSRDVPDLTLIDLPGITRVAVGNQPADIGYKIKTLIKKYIQRQETISLVVVPSNVDIATTEALSMAQEVDPEGDRTIGILTKPDLVDKGTEDKVVDVVRNLVFHLKKGYMIVKCRGQQEIQDQLSLSEALQREKIFFENHPYFRDLLEEGKATVPCLAEKLTSELITHICKSLPLLENQIKETHQRITEELQKYGVDIPEDENEKMFFLIDKINAFNQDITALMQGEETVGEEDIRLFTRLRHEFHKWSTIIENNFQEGHKILSRKIQKFENQYRGRELPGFVNYRTFETIVKQQIKALEEPAVDMLHTVTDMVRLAFTDVSIKNFEEFFNLHRTAKSKIEDIRAEQEREGEKLIRLHFQMEQIVYCQDQVYRGALQKVREKELEEEKKKKSWDFGAFQSSSATDSSMEEIFQHLMAYHQEASKRISSHIPLIIQFFMLQTYGQQLQKAMLQLLQDKDTYSWLLKERSDTSDKRKFLKERLARLTQARRRLAQFPGEG”, the “soluble on expression in E. coli” value was “not soluble”. Under “SLGPPPGPPRVSPDPRAELDSTVLLTRSLLADTRQLAAQLRDKFPADGDHNLDSLPTLAMSAGALGALQLPGVLTRLRADLLSYLRHVQWLRRAGGSSLKTLEPELGTLQARLDRLLRRLQLLMSRLALPQPPPDPPAPPLAPPSSAWGGIRAAHAILGGLHLTLDWAVRGLLLLKTR” stands “soluble”; under “SLKLLIEEFIPVEEISEEAKKEKLGNAKPPIFSLHYWWARKPLITARAAVLGALISKENLPMIVGNGDLKTNLLRILRIPKDINEGPRAHTQDPPAEYLKEAIIKTWGEIPTVLDPFAGGGSIPFEALRLGCNAVAVDYNPVAYLILKETLEYPKKYGMKLIL”, “soluble”.

Take “SLKPINYVPHFLCRISGEEINSISEIEFIKTLECLELSEGILRKINSLSADLTKDLHDCISLYKEQSISRVLINLKRDIFNMRFNRVQKYKLENISGFNHDKLNLWLNLAQEYQSTLHLMRETFKMEIQEKRGKLKQLFSNSEYIKAIQVSNTQLYENLLEYLQDNQSHPPKKMRNIEQSLINYLSRMIFKPTPFSSFTGLNYGFFSQEDSSFEINTKESKGHTRINMVYLKKIERMLLNRISIKNKCYVSLNQTINEEENYMFFRRGKDGTSQAFTGEAFIKIKKSELLKELIQYFEGISSMNIVEVVSFLSEKTNYETEALYNYLFKLEKMGVLDFSLGVSEQSDNYTKDLIENLLGIKDSLVEKSVSHLVEIEKIQAIFSESNYQKRYVLLKNLQEHIKKIYSLFDLKLESNDLTSLLFEDVSYKNTKIILNENQWKTHLDDFNLIKNLMPLFDDNILEKLSMNIIFKDIYGNKGAIDLLEFYREFNKYDKNLLWKKIRKNDTYLYLKKLRTEFYDYLETQINMGLDTIFLNKSWLKKFINKFPDLLKSKENYSFYFQIAYDNQDNRILVLNKIGPGLGKHFSRYGNLFLNSEYKENNRFINSLIEQYKKYDQNGGVLTDLNAVLGLNLNMHPNLLNYEITYPGCNPSKGINQVALKDIEVLYDSNSDQLKLYSKQYRQNVKLLPLGFLFPALSPSLYKFLCGFSESNGIEYSFWNKFLNEHNNNFSLLPRIMLGSVALDRRTWKINAKEIQKEFSKDTFETFINFHKWVKENQLPEDIFLRVANTMDAFSENELLNQDLGSWIAEIKQTKHRKPQYVNFNNYFHIDALRKIIKDVNNTVTIQEVYPHPDDVYYQKNSKKCVEFLVEVF”: the “soluble on expression in E. coli” value is reported as “soluble”. For “SLKQQLIKNGLVLDMKGNHKPQAKDILIEGKWIRDIRPNIEPEVDTEIIDAEGKIVMPGFVDTHRHVWESLLRHIGTDWTLLTYLDNLYYGNLGSMLTPEDSYIANLWGALEAIDAGVTTVLDWSMLETPEHADASIKGLQAAGIRAVFAHGTPGYETYWSRDSEVRHPKDAKRVKKEYFQSDDQLLTMALAIRGPEFSSWEVTLDDIQLARELDAIASMHIGFGTWGPHDRSITRMREAGLLDSDLNLVHVNRIQPHEYEYIAESGASLSVTPEVEMMMGHGYPATGYLHKHRGLVTLGVDVVVATAGDMFAQMKFALQAERAWQNEQRLDRGEMPEQLKMTTNDVLTFATLNGAKALKLDDKIGTLDVGKEADLLLINPSSFNLFPLNHEPVGAVVQSARPENVDSVFIAGRPVKRHGKLLFDDLDGLRNKVLAASEAVFHRQAAKN” the value was “not soluble”; for “SLKVYSKDEIVEQAKELAKMISETEEVDFFKKAEAQIHKNENVKRAIDEIKALQKQAVNLQHYGKWEALKKVEAEIDALQDKLDSIPVVQEFKSSQTYVNDLLQLVASTISNNVTDEILISTNGDVLKGETGAAVESKKGNCGC”, “soluble”.

For the origin of these results see the DeepSol protein solubility set.
